In PMC11415397, “The Alpha-Synuclein Gene (SNCA) is a Genomic Target of Methyl-CpG Binding Protein 2 (MeCP2)—Implications for Parkinson’s Disease and Rett Syndrome”:

B1: SNCA intron 1 CpG1 probe, methylated (dsDNA)
DNA 1: GTGCCCTGGTCTGG
DNA 2: CTGGCTTTCGTCCTGCTTCTGATATTCCCTTCTC
DNA 3: GAGAAGGGAATATCAGAAGCAGGACGAAAGCCAGCCAGACCAGGGCAC
modifications: CpG 5mC, in vitro methylated (enzyme for the probe not stated in EMSA section)
B2: SNCA intron 1 CpG2 probe, methylated (dsDNA)
DNA 1: GTGCCCTGGTCTGG
DNA 2: GCTGAGAGATTAGGCTGCTTCTCCGGGATCCGC
DNA 3: GCGGATCCCGGAGAAGCAGCCTAATCTCTCAGCCCAGACCAGGGCAC
modifications: CpG 5mC, in vitro methylated (enzyme for the probe not stated in EMSA section)

Assays:
[1] = biological target: MeCP2 wild type (UniProt P51608 1-486); assay: EMSA; shift from 30 nM; 10 mM Tris pH 7.5, 1 mM EDTA, 100 mM KCl, 100 uM DTT, 5% glycerol, 10 ug/ml BSA, 30 min room temperature; 50 fmol probe in 5 ul; MeCP2 30-75 (nmol in Methods and legend, nM in Results); conditions: protein: recombinant; tags: His; label: IRDye700 at 5' of LUEGO (S27); three strands: S27 and S23 lie side by side (nick) on S24; blunt
[2] = biological target: T1, MeCP2 R255X (UniProt P51608 1-254); assay: as above; conditions: protein: recombinant; tags: His; label: IRDye700 at 5' of LUEGO (S27); three strands: S27 and S23 lie side by side (nick) on S24; blunt
[3] = biological target: T1, MeCP2 R255X; assay: EMSA; strongest shift, already at 30 nM; 10 mM Tris pH 7.5, 1 mM EDTA, 100 mM KCl, 100 uM DTT, 5% glycerol, 10 ug/ml BSA, 30 min room temperature; 50 fmol probe in 5 ul; MeCP2 30-75 (nmol in Methods and legend, nM in Results); conditions: protein: recombinant; tags: His; label: IRDye700 at 5' of LUEGO (S27); three strands: S27 and S25 lie side by side (nick) on S26; blunt

Binder	binding result [1]	binding result [2]	binding result [3]
B1	binds	binds	
B2			binds
